The subject of data set [1] is Histone octamer H2A(K120C)-AF488/H2B/H3/H4 (Saccharomyces cerevisiae). Put plainly: single-molecule fluorescence of reconstituted nucleosomes. The conditions noted are these: 100 mM KOAc, 0.02% NP40, 5% glycerol, 1 mM DTT, 5 mM ATP or ATPgS, 30 C, single-molecule buffer not ….
Data set [2] deals with ORC-JF646 (Origin Recognition Complex, HaloTag-JF646 on N-terminus of Orc3) (Saccharomyces cerevisiae). Put plainly: single-molecule fluorescence with optical tweezers. As to conditions: Bulk loading: 25 mM HEPES-KOH pH 7.6, 10 mM MgOAc, 100 mM KOAc, 0.02% NP40, 5% glycerol, 1 mM DTT, 5 mM ATP or ATPgS, 30 C, single-molecule buffer not …; for binding signal (% of foci in origin bin): 5 nM ORC, 5 s rapid binding, 30 min; for binding signal (% of DNA molecules with ORC): Cdc6, ATP, 30 min stable binding.

Data set [3] has as its target H3-H4 tetramer of S. cerevisiae (on DNA: H3-H4 tetrasome) (S. cerevisiae) (UniProt P61830). Put plainly: single-molecule photobleaching step counting, fit of a probability model; H2A^AF488 foci, chromatinized ARS1 origin, after 30 min bulk incubation with ORC, Cdc6 and MCM^JF646/Cdt1.
For data set [4] the target is unchanged. Put plainly: single-molecule photobleaching step counting, fit of a probability model; H2A^AF488 foci, chromatinized mutated origin, after 30 min bulk incubation with ORC^JF646 and Cdc6.
Data set [5] has the same target. Put plainly: single-molecule photobleaching step counting, fit of a probability model; H2A^AF488 foci, chromatinized mutated origin, after 30 min bulk incubation with ORC, Cdc6 and MCM^JF646/Cdt1.
Data set [6] has the same target. Briefly: single-molecule photobleaching step counting, fit of a probability model; H2A^AF488 foci at the chromatinized ARS1 origin, imaged immediately after introduction into the flow cell; p_label fixed at 0.81.
Data set [7] has the same target. Put plainly: single-molecule photobleaching step counting, fit of a probability model; H2A^AF488 foci, chromatinized ARS1 origin, after 30 min bulk incubation with ORC^JF646 and Cdc6.
Data set [8] shares this target. Put plainly: single-molecule photobleaching step counting, fit of a probability model; H2A^AF488 foci, chromatinized ARS1 origin, after 30 min bulk incubation in buffer only.

10.4 kbp DNA, ARS1 origin, bare: the binding signal (% of H2A foci in origin bin) is 49 in data set [1] (after 30 min with ORC-JF646 and Cdc6, Bulk loading: 25 mM HEPES-KOH pH 7.6, 10 mM MgOAc); 80 in data set [1] (salt-gradient dialysis, after 30 min in buffer, chromatinized form is N2, Bulk loading: 25 mM HEPES-KOH pH 7.6, 10 mM MgOAc). The binding signal (% of foci in origin bin) in data set [2] stood at 30. For the same substance, the binding signal (% of DNA molecules with ORC) in data set [2] (61% of foci in origin bin) was 79.
Consider “10.4 kbp DNA, ARS1 origin, chromatinized (two nucleosomes)”, for which, in data set [2] (nucleosomes), the binding signal (% of foci in origin bin) worked out at 39. In data set [2] (nucleosomes, 51% of foci in origin bin), this substance came in with a binding signal (% of DNA molecules with ORC) of 41.
As for “H2A^AF488-H2B dimer (S. cerevisiae H2A K120C labelled with AF488, with H2B) (from UniProt P04911 2-132; P02293 5-131) (complex)”, the ph2a (probability of H2A-H2B dimer association with the H3-H4 tetrasome) in data set [3] was 0.84; in data set [4], 0.6; in data set [5], 0.91; in data set [6], 0.77; in data set [7], 0.81; in data set [8], 0.73.

For the origin of these results see paper PMC10593741.
